Test [1] concerns the target HIV-2 Gag polyprotein in immature particles (HIV-2 ROD). Description: cryo-EM structure.
Test [2] addresses HIV-2 capsid (CA) protein carboxyl-terminal domain, CA residues 145-230 (HIV-2 ROD). Description: crystal structure.

The term stoichiometry N denotes a count of units in the complex or per binding partner. As to “HIV-2 Gag polyprotein in immature particles (natural protein)”, the stoichiometry N in test [1] was 6.

“HIV-2 capsid (CA) protein carboxyl-terminal domain, CA residues 145-230 (domain or fragment)” displayed a stoichiometry N in test [2] of 2.
